Reference: article PMC6746942

What was measured:
[1] = target: T1, YtrASa (Sulfolobus acidocaldarius) (UniProt Q4J7S4); test: EMSA; settings: 20 mM Tris-HCl pH 8.0, 1 mM MgCl2, 0.1 mM DTT, 12.5% glycerol, 50 mM NaCl, 0.4 mM EDTA, 37 C; ~0.1 nM 32P-DNA, excess non-specific competitor DNA; 6% native …
T1 sequence: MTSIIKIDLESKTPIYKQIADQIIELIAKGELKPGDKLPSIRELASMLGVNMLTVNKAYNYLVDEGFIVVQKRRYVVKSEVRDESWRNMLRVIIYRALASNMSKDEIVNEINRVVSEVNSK

[2] = target: T1, YtrASa (Sulfolobus acidocaldarius); test: DNase I footprinting; settings: 20 mM Tris-HCl pH 8.0, 1 mM MgCl2, 0.1 mM DTT, 12.5% glycerol, 50 mM NaCl, 0.4 mM EDTA, 37 C; ~0.1 nM 32P-DNA, excess non-specific competitor DNA; 6% native …

Row | Substance | binding [1] | binding [2] | Kd [1]
1 | AACTGCGGTGAATAAAGTAGGGTGTTTGATTTTTGCCAAAGAAGAGGGAGAATAGAGGAAGAAGAAAGGGCGACAAAGGACACGTTGGTAGCATACATTGTGACCA (double strand) [Saci_1554 target] | binds more weakly |  | 
2 | CTTACCTTTTATAGTAGGTAAATAAGGTTTTTATTCCCCTAAATCATATATTTGCTATATGACAAGTATAATAAAAATCGACCTAGAGTCCAAGACTCCCATC (double strand) [ytrASa (Saci_1851) target, 102 bp] | binds | binds | 0.037 µM
3 | TCCTGAAGGCCTAAAAGAGTACATTCTAGACCTTTCCGCATAAAACTTAGGTAGGGCTAGGCATAATGCAAAAGCCCTCAAACTTTTCATTAAAGAAGTGATT (double strand) [Saci_0677 target] | no binding |  | 
4 | GGGAAAGGATATTGGGGAAATATTAAAAATACTGGGTTGAAGTTTAAACTTGTGTTTAAACAACTAATAATTAAATATTTTGGGATAATATCTGTTGTAATCCTTGCAACAATAATCTC (double strand) [Saci_0421 target] | no binding |  | 
5 | AGCAACACCAAAGGATTGAATTTCATTTCTATCCCTGTTTGACTTAAAGCAAGACTCTTGAATAAAAAATATAATTTAGAGGTTTACTAAAAACAAACCGTGAACGTAGGAAGA (double strand) [Saci_0871 target] | no binding |  | 
6 | AAAATGGGAGAGTAATCGGTTTTTATTGAGACTTCGCAATACGATATATATGGATACAAAAGTTGTAATTAGAAGAGATCAGTGGAAACCAGGATCGGCGATGGAAATAAAGCGAGGCGT (double strand) [Saci_1234 target] | no binding |  | 
7 | Saci_2078 target, 100 bp |  |  | 0.034 µM
8 | ytrASa (Saci_1851) target, 102 bp |  |  | 0.037 µM
9 | TCGTCAACAACCTATATAAGCCATAACTTTAAATAAGGATATTGTTATATTTGTTATATGACAAATATGTTTTCATTACTCTACCCGCTAATCTCCATAG (double strand) [Saci_2078 target, 100 bp] |  | binds | 0.034 µM
10 | GTTTTGAGTACAACCTAACCCATTATACTAAATAAGGTTTATTTATTTTAGTAACTTTTAGAAATTATGCAAGATCTTTTTTGGGAAAGTGCAAATTGCCTTGAGGGAAAAGGTCTGCAA (double strand) [Saci_2168 target] | no binding |  | 
